{"source": "patent US20230310602A1", "about": "(published 2023)", "key": {"[1]": {"molecular_target": "T1, HCELL (exofucosylated CD44) on FTVII-treated human MSCs (FuchAdMSCs, adipose-derived); FuchBMMSCs, bone … (human, UniProt P16070 21-742, fucose installed in α(1,3)-linkage onto sialyllactosaminyl glycans of CD44 by fucosyltransferase VII with GDP-fucose (creates sLe^x))", "T1 sequence (P16070 21-742)": "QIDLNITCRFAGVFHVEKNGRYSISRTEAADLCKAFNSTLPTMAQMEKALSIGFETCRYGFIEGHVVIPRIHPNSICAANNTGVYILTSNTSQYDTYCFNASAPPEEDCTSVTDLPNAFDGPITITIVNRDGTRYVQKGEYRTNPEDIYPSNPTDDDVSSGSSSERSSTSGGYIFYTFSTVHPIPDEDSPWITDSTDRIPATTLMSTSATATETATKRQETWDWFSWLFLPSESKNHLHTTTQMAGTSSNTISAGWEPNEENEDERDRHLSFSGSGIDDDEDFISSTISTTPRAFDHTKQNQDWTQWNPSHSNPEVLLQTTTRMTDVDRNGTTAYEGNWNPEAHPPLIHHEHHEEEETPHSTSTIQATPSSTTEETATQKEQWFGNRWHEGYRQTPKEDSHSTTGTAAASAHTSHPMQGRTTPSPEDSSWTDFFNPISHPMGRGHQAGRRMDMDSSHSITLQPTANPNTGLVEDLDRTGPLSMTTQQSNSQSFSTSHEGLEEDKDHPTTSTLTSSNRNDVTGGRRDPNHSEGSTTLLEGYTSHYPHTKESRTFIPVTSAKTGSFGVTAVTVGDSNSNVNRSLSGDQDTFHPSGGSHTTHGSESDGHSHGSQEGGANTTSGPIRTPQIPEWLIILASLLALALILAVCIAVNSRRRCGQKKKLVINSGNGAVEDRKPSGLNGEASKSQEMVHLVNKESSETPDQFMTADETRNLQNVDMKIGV", "assay": "cell-based or functional assay"}, "[2]": {"molecular_target": "T1, HCELL (exofucosylated CD44) on …", "assay": "cell-based or functional assay", "remark": "listed apart in the source"}}, "data": [{"binder": "Recombinant mouse E-selectin-human Fc chimera (mE-Ig) (Fc fusion, UniProt Q00690 22-557, looked up, not shown: a dimerising Fc or GST) WYYNASSELMTYDEASAYCQRDYTHLVAIQNKEEINYLNSNLKHSPSYYWIGIRKVNNVWIWVGTGKPLTEEAQNWAPGEPNNKQRNEDCVEIYIQRTKDSGMWNDERCNKKKLALCYTASCTNASCSGHGECIETINSYTCKCHPGFLGPNCEQAVTCKPQEHPDYGSLNCSHPFGPFSYNSSCSFGCKRGYLPSSMETTVRCTSSGEWSAPAPACHVVECEALTHPAHGIRKCSSNPGSYPWNTTCTFDCVEGYRRVGAQNLQCTSSGIWDNETPSCKAVTCDAIPQPQNGFVSCSHSTAGELAFKSSCNFTCEQSFTLQGPAQVECSAQGQWTPQIPVCKAVQCEALSAPQQGNMKCLPSASGPFQNGSSCEFSCEEGFELKGSRRLQCGPRGEWDSKKPTCSAVKCDDVPRPQNGVMECAHATTGEFTYKSSCAFQCNEGFSLHGSAQLECTSQGKWTQEVPSCQVVQCPSLDVPGKMNMSCSGTAVFGTVCEFTCPDDWTLNGSAVLTCGATGRWSGMPPTCEAPVSPTRP", "values": [{"measurement": "IDO in supernatant, ratio FuchAdMSCs/UhAdMSCs, mE-IG (1 µg/ml)", "setting": "[1]", "value": 6.75, "unit": "ratio"}, {"measurement": "IDO in supernatant, ratio FuchAdMSCs/UhAdMSCs, mE-IG (5 µg/ml)", "setting": "[1]", "value": 7.72, "unit": "ratio"}, {"measurement": "IDO in supernatant, ratio FuchBMMSCs/UhBMMSCs, mE-IG (1 µg/ml)", "setting": "[1]", "value": 4.71, "unit": "ratio"}, {"measurement": "IDO in supernatant, ratio FuchBMMSCs/UhBMMSCs, mE-IG (5 µg/ml)", "setting": "[1]", "value": 4.74, "unit": "ratio"}, {"measurement": "IL-10 in supernatant, ratio FuchAdMSCs/UhAdMSCs, mE-IG (1 µg/ml)", "setting": "[1]", "value": 12.7, "unit": "ratio"}, {"measurement": "IL-10 in supernatant, ratio FuchAdMSCs/UhAdMSCs, mE-IG (5 µg/ml)", "setting": "[1]", "value": 16, "unit": "ratio"}, {"measurement": "IL-10 in supernatant, ratio FuchBMMSCs/UhBMMSCs, mE-IG (1 µg/ml)", "setting": "[1]", "value": 3.87, "unit": "ratio"}, {"measurement": "IL-10 in supernatant, ratio FuchBMMSCs/UhBMMSCs, mE-IG (5 µg/ml)", "setting": "[1]", "value": 4.85, "unit": "ratio"}, {"measurement": "NO2^-/NO3^- in supernatant, ratio FuchAdMSCs/UhAdMSCs, mE-IG (1 µg/ml)", "setting": "[1]", "value": 5.12, "unit": "ratio"}, {"measurement": "NO2^-/NO3^- in supernatant, ratio FuchAdMSCs/UhAdMSCs, mE-IG (5 µg/ml)", "setting": "[1]", "value": 5.9, "unit": "ratio"}, {"measurement": "NO2^-/NO3^- in supernatant, ratio FuchBMMSCs/UhBMMSCs, mE-IG (1 µg/ml)", "setting": "[1]", "value": 3.31, "unit": "ratio"}, {"measurement": "NO2^-/NO3^- in supernatant, ratio FuchBMMSCs/UhBMMSCs, mE-IG (5 µg/ml)", "setting": "[1]", "value": 5.14, "unit": "ratio"}, {"measurement": "TGFβ in supernatant, ratio FuchAdMSCs/UhAdMSCs, mE-IG (1 µg/ml)", "setting": "[1]", "value": 12.2, "unit": "ratio"}, {"measurement": "TGFβ in supernatant, ratio FuchAdMSCs/UhAdMSCs, mE-IG (5 µg/ml)", "setting": "[1]", "value": 12.4, "unit": "ratio"}, {"measurement": "TGFβ in supernatant, ratio FuchBMMSCs/UhBMMSCs, mE-IG (1 µg/ml)", "setting": "[1]", "value": 8.11, "unit": "ratio"}, {"measurement": "TGFβ in supernatant, ratio FuchBMMSCs/UhBMMSCs, mE-IG (5 µg/ml)", "setting": "[1]", "value": 8.5, "unit": "ratio"}, {"measurement": "IL-10 production of adipose-derived hAdMSCs, ratio of FuchMSCs/UhMSCs for E-selectin exposure", "setting": "[2]", "value": 10, "unit": "fold"}]}]}
